In patent US6849610:

Tested on: HCMV intact particles AD169 (Human cytomegalovirus AD169)
Test: cell_activity
Conditions: 2'-NH2 on all pyrimidines, plaque formation, 1e5 PFU/ml

With “GGGAGACAAGAAUAAACGGUCAACUCGAGCCACCCCAUAACCCUCAAUACUCCAGGGAUUGGGUUCGACAUGAGGG [L19]” the IC50 (viral yield IC50 35±7 nM) was 35 nM.
“GGGAGACAAGAAUAAACGGUCAAUGUGGGUCGUGUUAAGCUUCGGGCUUCGCGCAAAUCUGGGUUCGACAUGAGGG [L66]” was tested, and the IC50 (viral yield IC50 18±4 nM) was 15 nM.
Work on “GGGAGACAAGAAUAAACGGUCAAUUACGGUCACCUUACCCCUGGGUGUGCUCUUCCCGGUGGGUUCGACAUGAGGG [L13]” yielded an IC50 (viral yield IC50 100±20 nM) of 125 nM.
